Experimental data as given in patent CN114106176A (SHENZHEN PHENPENG BIOTHERAPY CO LTD, dated 2022).

Target: T1, 人CD22胞外段缀合His标签 (hCD22-His, ACRO, CD2-H52H8) (human, UniProt P20273 20-687)
T1 construct: extracellular domain; Bought recombinant protein; also called 人类hCD22-His; not shown: His tag
T1 sequence (looked up): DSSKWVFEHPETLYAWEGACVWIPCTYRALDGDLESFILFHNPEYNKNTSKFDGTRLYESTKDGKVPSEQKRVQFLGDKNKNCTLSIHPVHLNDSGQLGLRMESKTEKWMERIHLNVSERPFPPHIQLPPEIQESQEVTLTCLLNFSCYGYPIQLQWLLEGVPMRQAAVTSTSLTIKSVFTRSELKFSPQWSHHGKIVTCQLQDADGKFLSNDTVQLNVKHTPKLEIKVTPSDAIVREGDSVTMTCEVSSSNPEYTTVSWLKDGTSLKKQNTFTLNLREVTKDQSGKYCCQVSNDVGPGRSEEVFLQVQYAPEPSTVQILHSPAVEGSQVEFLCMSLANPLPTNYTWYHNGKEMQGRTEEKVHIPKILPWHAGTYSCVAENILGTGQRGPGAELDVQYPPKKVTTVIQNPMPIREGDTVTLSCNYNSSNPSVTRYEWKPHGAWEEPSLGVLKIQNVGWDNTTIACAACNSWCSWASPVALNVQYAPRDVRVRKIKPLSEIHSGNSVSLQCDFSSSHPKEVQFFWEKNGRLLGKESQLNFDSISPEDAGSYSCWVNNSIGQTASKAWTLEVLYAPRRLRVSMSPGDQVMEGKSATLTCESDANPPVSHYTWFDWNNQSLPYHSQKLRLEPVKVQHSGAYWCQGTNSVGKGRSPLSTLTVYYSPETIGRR
Assay: ELISA, hCD22-His coated at 2 ug/ml, 3-fold antibody dilutions

B1: 5CD22-111-1-C3 (antibody, mouse IgG1, kappa, V domains shown)
VH: EVKLEESGGGLVQPGGFMKLSCVASGFTFSNYWMNWVRQSPERGLEWVAEIRLKSNDYATHYAESVKGRFTISRDDSKSNVYLQMNNLRAEDTGIYYCTRVYYYGRDYAMDYWGQGTSVTVSS
VL: QIVLTQSPAIMSASLGERVTMTCTASSSVSSIYLHWYQQKPGSSPKLWIYSTSNLASGVPGRFSGSGSGTSYSLTISSMEAEDAATYYCHQYHRSPRTFGGGTKLEIKR
B1: binds.
